# B1: 3× Flag-3×MBT (designed binder)
# chain: EEWSSSQPATGEKKECWSWESYLEEQKAITAPVSLFQDSQAVTHNKNGFKLGMKLEGIDPQHPSMYFILTVAEVCGYRLRLHFDGYSECHDFWVNANSPDIHPAGWFEKTGHKLQPPKGYKEEEFSWSQYLRSTRAQAAPKHLFVSQSHSPPPLGFQVGMKLEAVDRMNPSLVCVASVTDVVDSRFLVHFDNWDDTYDYWCDPSSPYIHPVGWCQKQGKPLTPPQDYPDPDNFCWEKYLEETGASAVPTWAFKVRPPHSFLVNMKLEAVDRRNPALIRVASVEDVEDHRIKIHFDGWSHGYDFWIDADHPDIHPAGWCSKTGHPLQPPLGPREPSSASPGG
# notes: also called Flag-tagged 3×MBT; 3xFlag-3xMBT; not shown: made by PreScission cleavage of GST-3× Flag-3×MBT
# How the values were obtained:
# Assay in all cases: ProtoArray, GST-treated control array;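 also: human protein microarray (about 9500 recombinant proteins) incubated overnight with GST alone plus SAM cofactor as the negative control for G9a SET domain methylation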
# [1] = biological target: T1, C12orf60-Uncharacterized protein C12orf60 (human, UniProt Q5U649 1-245)
# T1 sequence (looked up): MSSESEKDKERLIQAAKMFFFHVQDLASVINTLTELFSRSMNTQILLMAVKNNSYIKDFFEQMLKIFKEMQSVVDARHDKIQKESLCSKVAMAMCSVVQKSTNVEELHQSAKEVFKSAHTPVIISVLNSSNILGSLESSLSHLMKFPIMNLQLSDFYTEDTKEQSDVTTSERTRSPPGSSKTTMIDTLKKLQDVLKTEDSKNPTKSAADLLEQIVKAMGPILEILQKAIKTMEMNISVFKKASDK
# [2] = biological target: T2, LTC4S-Leukotriene C4 synthase (human, UniProt Q16873 1-150)
# T2 sequence (looked up): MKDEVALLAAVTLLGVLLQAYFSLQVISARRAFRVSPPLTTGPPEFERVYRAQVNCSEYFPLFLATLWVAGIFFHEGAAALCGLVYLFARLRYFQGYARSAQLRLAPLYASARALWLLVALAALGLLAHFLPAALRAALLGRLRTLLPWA
# [3] = biological target: T3, RAB7B-RAB7B, member RAS oncogene family (RAB7B) (human, UniProt Q96AH8 1-199)
# T3 sequence (looked up): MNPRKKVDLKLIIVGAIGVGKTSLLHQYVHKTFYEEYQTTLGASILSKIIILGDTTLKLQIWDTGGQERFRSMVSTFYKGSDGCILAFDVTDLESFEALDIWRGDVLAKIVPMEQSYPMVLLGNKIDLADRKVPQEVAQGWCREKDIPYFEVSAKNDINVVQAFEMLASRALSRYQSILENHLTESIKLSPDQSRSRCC
# [4] = biological target: T4, FKBP14-FK506 binding protein 14, 22 kDa (FKBP14) (human, UniProt Q9NWM8 20-211)
# T4 sequence (looked up): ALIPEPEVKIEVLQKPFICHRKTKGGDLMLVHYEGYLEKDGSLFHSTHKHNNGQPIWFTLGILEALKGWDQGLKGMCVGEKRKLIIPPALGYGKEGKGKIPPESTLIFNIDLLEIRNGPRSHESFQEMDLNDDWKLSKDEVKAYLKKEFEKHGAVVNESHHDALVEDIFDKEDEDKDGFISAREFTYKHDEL
# [5] = biological target: T5, RASSF4-Ras association (RaIGDS/AF-6) domain family 4 (RASSF4) (human, UniProt Q9H2L5 1-321, limits assumed)
# T5 sequence (looked up): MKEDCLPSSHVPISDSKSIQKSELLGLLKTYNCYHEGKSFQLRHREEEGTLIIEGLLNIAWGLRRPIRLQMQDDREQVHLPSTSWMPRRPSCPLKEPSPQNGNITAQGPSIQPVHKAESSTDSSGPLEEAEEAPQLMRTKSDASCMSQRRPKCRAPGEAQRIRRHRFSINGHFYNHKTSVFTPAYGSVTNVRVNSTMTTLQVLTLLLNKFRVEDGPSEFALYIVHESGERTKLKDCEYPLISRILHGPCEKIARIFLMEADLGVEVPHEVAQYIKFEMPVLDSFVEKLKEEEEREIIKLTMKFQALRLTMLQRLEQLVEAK
# [6] = biological target: T6, GFOD1-Glucose-fructose oxidoreductase domain-containing protein 1 (human, UniProt Q9NXC2 22-390, limits assumed)
# T6 sequence (looked up): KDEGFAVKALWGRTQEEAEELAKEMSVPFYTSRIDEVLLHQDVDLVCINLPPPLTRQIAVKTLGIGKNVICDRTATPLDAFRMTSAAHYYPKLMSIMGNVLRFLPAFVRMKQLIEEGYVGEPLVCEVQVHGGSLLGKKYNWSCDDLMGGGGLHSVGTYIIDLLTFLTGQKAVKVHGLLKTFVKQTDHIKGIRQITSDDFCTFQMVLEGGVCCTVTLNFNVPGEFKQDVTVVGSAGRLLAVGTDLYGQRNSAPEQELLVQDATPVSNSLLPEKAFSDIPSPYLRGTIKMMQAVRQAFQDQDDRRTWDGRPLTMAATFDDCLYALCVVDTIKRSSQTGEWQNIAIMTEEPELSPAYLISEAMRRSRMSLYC
# [7] = biological target: T7, PTCD2-pentatricopeptide repeat domain 2 (PTCD2) (human, UniProt Q8WV60 1-388, limits assumed)
# T7 sequence (looked up): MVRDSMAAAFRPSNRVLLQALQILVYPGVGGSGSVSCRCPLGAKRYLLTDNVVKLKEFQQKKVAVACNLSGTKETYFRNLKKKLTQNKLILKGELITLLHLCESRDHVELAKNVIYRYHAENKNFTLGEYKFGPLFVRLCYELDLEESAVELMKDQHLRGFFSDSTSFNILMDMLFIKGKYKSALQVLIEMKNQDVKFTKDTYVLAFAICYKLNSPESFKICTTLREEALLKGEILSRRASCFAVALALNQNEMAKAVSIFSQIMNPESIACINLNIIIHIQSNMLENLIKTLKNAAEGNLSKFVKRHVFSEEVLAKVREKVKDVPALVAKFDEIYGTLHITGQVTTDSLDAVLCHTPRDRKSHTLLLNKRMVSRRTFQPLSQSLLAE
# CTXN1-cortexin 1 (CTXN1) = biological target: T8, CTXN1-cortexin 1 (CTXN1) (human, UniProt P60606 1-82)
# T8 sequence (looked up): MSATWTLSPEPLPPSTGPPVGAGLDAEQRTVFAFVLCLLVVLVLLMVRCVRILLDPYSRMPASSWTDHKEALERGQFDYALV
# [8] = biological target: TMEM97-transmembrane protein 97 (TMEM97) (human, UniProt Q5BJF2 1-176)
# [9] = biological target: T9, DIRAS1-DIRAS family, GTP-binding RAS-like 1 (DIRAS1) (human, UniProt O95057 1-198, limits assumed)
# T9 sequence (looked up): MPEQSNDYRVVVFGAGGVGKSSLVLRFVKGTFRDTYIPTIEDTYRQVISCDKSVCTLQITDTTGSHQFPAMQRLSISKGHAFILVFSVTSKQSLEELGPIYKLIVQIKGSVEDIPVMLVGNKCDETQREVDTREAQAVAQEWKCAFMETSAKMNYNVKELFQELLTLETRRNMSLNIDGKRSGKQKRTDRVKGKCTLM
# [10] = biological target: FTH1-Ferritin heavy chain (human, UniProt P02794 1-183)
# FTH1-Ferritin heavy chain, sequence (P02794 whole entry): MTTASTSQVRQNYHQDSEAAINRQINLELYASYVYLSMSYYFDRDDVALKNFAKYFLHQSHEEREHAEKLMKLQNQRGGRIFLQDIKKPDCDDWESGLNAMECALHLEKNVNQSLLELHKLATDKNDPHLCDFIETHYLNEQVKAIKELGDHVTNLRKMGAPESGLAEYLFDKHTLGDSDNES
# TMEM97-transmembrane protein 97 (TMEM97), sequence (Q5BJF2 whole entry): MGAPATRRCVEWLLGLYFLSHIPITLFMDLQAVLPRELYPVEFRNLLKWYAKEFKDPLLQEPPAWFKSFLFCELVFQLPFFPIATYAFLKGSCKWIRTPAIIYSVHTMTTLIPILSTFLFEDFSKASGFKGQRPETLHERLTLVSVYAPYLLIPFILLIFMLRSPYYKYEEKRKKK
binder,measurement,setting,value
B1,GST Average SNR,[1],-0.007
same,GST Average SNR,[2],1.21
same,GST Average SNR,[3],-0.309
same,GST Average SNR,[4],1.24
same,GST Average SNR,[5],1.16
same,GST Average SNR,[6],0.413
same,GST Average SNR,[7],0.679
same,GST Average SNR,CTXN1-cortexin 1 (CTXN1),1
same,GST Average SNR,[8],-1.53
same,GST Average SNR,[9],0.988
same,GST Average SNR,[10],0.815

# Reference: patent publication US20140274782A1 (Stanford University, published 2014)
